Experimental findings from patent US20140087995A1 (published 2014) are described below.

As a reminder, the IC50 is the midpoint of a concentration-inhibition curve.

To fix the notation:
T1: human amylin receptor (amylin 3(a) receptor: human calcitonin receptor with RAMP-3) (human, UniProt P30988 25-474; O60896 24-148)
T1 construct: whole, on cells; also called hAmylin-R; hAmylinR
T1 sequence (looked up) 1: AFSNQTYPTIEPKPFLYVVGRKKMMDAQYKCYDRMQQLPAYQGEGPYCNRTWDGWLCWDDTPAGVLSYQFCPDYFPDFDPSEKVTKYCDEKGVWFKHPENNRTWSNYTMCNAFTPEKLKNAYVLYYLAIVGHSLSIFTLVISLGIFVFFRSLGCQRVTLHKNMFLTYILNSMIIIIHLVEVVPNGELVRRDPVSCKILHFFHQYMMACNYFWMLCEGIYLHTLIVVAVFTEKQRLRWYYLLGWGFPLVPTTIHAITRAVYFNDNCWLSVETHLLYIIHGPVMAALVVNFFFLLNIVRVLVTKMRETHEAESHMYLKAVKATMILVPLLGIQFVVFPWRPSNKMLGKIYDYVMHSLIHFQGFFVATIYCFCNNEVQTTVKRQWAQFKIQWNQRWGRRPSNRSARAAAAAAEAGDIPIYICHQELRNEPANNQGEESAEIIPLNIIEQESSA
T1 sequence (looked up) 2: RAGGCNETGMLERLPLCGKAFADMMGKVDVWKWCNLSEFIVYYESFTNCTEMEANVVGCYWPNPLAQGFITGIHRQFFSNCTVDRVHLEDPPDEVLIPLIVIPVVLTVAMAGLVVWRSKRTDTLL

B1: N^ε1-[2-[2-[2-[[(4S)-4-carboxy-4-(19-carboxynonadecanoylamino)butanoyl]amino]ethoxy]ethoxy]acetyl]-[Arg14,Arg17,Pro21,Pro27]-h-amylin (peptide)
peptide: K([AEEA-γGlu-C20 diacid])CNTATCATQRLARFLRHSSPNFGAIPSSTNVGSNTY-NH2
modifications: disulfide 2-7; N-terminus assumed
SMILES: CC[C@H](C)[C@H](NC(=O)[C@H](C)NC(=O)CNC(=O)[C@H](Cc1ccccc1)NC(=O)[C@H](CC(N)=O)NC(=O)[C@@H]1CCCN1C(=O)[C@H](CO)NC(=O)[C@H](CO)NC(=O)[C@H](Cc1c[nH]cn1)NC(=O)[C@H](CCCNC(=N)N)NC(=O)[C@H](CC(C)C)NC(=O)[C@H](Cc1ccccc1)NC(=O)[C@H](CCCNC(=N)N)NC(=O)[C@H](C)NC(=O)[C@H](CC(C)C)NC(=O)[C@H](CCCNC(=N)N)NC(=O)[C@H](CCC(N)=O)NC(=O)[C@@H](NC(=O)[C@H](C)NC(=O)[C@@H]1CSSC[C@H](NC(=O)[C@@H](N)CCCCNC(=O)COCCOCCNC(=O)CC[C@H](NC(=O)CCCCCCCCCCCCCCCCCCC(=O)O)C(=O)O)C(=O)N[C@@H](CC(N)=O)C(=O)N[C@@H]([C@@H](C)O)C(=O)N[C@@H](C)C(=O)N[C@@H]([C@@H](C)O)C(=O)N1)[C@@H](C)O)C(=O)N1CCC[C@H]1C(=O)N[C@@H](CO)C(=O)N[C@@H](CO)C(=O)N[C@H](C(=O)N[C@@H](CC(N)=O)C(=O)N[C@H](C(=O)NCC(=O)N[C@@H](CO)C(=O)N[C@@H](CC(N)=O)C(=O)N[C@H](C(=O)N[C@@H](Cc1ccc(O)cc1)C(N)=O)[C@@H](C)O)C(C)C)[C@@H](C)O
notes: also called 82; compound 82
B2: N^ε1-[2-[2-[2-[[(4S)-4-carboxy-4-(19-carboxynonadecanoylamino)butanoyl]amino]ethoxy]ethoxy]acetyl]-[Arg17,Pro21,Pro27,Arg34]-h-amylin (peptide)
peptide: K([AEEA-γGlu-C20 diacid])CNTATCATQRLANFLRHSSPNFGAIPSSTNVGRNTY-NH2
modifications: disulfide 2-7; N-terminus assumed
SMILES: CC[C@H](C)[C@H](NC(=O)[C@H](C)NC(=O)CNC(=O)[C@H](Cc1ccccc1)NC(=O)[C@H](CC(N)=O)NC(=O)[C@@H]1CCCN1C(=O)[C@H](CO)NC(=O)[C@H](CO)NC(=O)[C@H](Cc1c[nH]cn1)NC(=O)[C@H](CCCNC(=N)N)NC(=O)[C@H](CC(C)C)NC(=O)[C@H](Cc1ccccc1)NC(=O)[C@H](CC(N)=O)NC(=O)[C@H](C)NC(=O)[C@H](CC(C)C)NC(=O)[C@H](CCCNC(=N)N)NC(=O)[C@H](CCC(N)=O)NC(=O)[C@@H](NC(=O)[C@H](C)NC(=O)[C@@H]1CSSC[C@H](NC(=O)[C@@H](N)CCCCNC(=O)COCCOCCNC(=O)CC[C@H](NC(=O)CCCCCCCCCCCCCCCCCCC(=O)O)C(=O)O)C(=O)N[C@@H](CC(N)=O)C(=O)N[C@@H]([C@@H](C)O)C(=O)N[C@@H](C)C(=O)N[C@@H]([C@@H](C)O)C(=O)N1)[C@@H](C)O)C(=O)N1CCC[C@H]1C(=O)N[C@@H](CO)C(=O)N[C@@H](CO)C(=O)N[C@H](C(=O)N[C@@H](CC(N)=O)C(=O)N[C@H](C(=O)NCC(=O)N[C@@H](CCCNC(=N)N)C(=O)N[C@@H](CC(N)=O)C(=O)N[C@H](C(=O)N[C@@H](Cc1ccc(O)cc1)C(N)=O)[C@@H](C)O)C(C)C)[C@@H](C)O
notes: also called 78; compound 78
B3: N^ε1-[2-[2-[2-[[(4S)-4-carboxy-4-(19-carboxynonadecanoylamino)butanoyl]amino]ethoxy]ethoxy]acetyl]-[Arg17,Pro21,Pro27,Arg35]-h-amylin (peptide)
peptide: K([AEEA-γGlu-C20 diacid])CNTATCATQRLANFLRHSSPNFGAIPSSTNVGSRTY-NH2
modifications: disulfide 2-7; N-terminus assumed
SMILES: CC[C@H](C)[C@H](NC(=O)[C@H](C)NC(=O)CNC(=O)[C@H](Cc1ccccc1)NC(=O)[C@H](CC(N)=O)NC(=O)[C@@H]1CCCN1C(=O)[C@H](CO)NC(=O)[C@H](CO)NC(=O)[C@H](Cc1c[nH]cn1)NC(=O)[C@H](CCCNC(=N)N)NC(=O)[C@H](CC(C)C)NC(=O)[C@H](Cc1ccccc1)NC(=O)[C@H](CC(N)=O)NC(=O)[C@H](C)NC(=O)[C@H](CC(C)C)NC(=O)[C@H](CCCNC(=N)N)NC(=O)[C@H](CCC(N)=O)NC(=O)[C@@H](NC(=O)[C@H](C)NC(=O)[C@@H]1CSSC[C@H](NC(=O)[C@@H](N)CCCCNC(=O)COCCOCCNC(=O)CC[C@H](NC(=O)CCCCCCCCCCCCCCCCCCC(=O)O)C(=O)O)C(=O)N[C@@H](CC(N)=O)C(=O)N[C@@H]([C@@H](C)O)C(=O)N[C@@H](C)C(=O)N[C@@H]([C@@H](C)O)C(=O)N1)[C@@H](C)O)C(=O)N1CCC[C@H]1C(=O)N[C@@H](CO)C(=O)N[C@@H](CO)C(=O)N[C@H](C(=O)N[C@@H](CC(N)=O)C(=O)N[C@H](C(=O)NCC(=O)N[C@@H](CO)C(=O)N[C@@H](CCCNC(=N)N)C(=O)N[C@H](C(=O)N[C@@H](Cc1ccc(O)cc1)C(N)=O)[C@@H](C)O)C(C)C)[C@@H](C)O
notes: also called 38; compound 38
B4: N^ε1-[2-[2-[2-[[(4S)-4-carboxy-4-(19-carboxynonadecanoylamino)butanoyl]amino]ethoxy]ethoxy]acetyl]-[Arg17,Pro21,Pro27,His34]-h-amylin (peptide)
peptide: K([AEEA-γGlu-C20 diacid])CNTATCATQRLANFLRHSSPNFGAIPSSTNVGHNTY-NH2
modifications: disulfide 2-7; N-terminus assumed
SMILES: CC[C@H](C)[C@H](NC(=O)[C@H](C)NC(=O)CNC(=O)[C@H](Cc1ccccc1)NC(=O)[C@H](CC(N)=O)NC(=O)[C@@H]1CCCN1C(=O)[C@H](CO)NC(=O)[C@H](CO)NC(=O)[C@H](Cc1c[nH]cn1)NC(=O)[C@H](CCCNC(=N)N)NC(=O)[C@H](CC(C)C)NC(=O)[C@H](Cc1ccccc1)NC(=O)[C@H](CC(N)=O)NC(=O)[C@H](C)NC(=O)[C@H](CC(C)C)NC(=O)[C@H](CCCNC(=N)N)NC(=O)[C@H](CCC(N)=O)NC(=O)[C@@H](NC(=O)[C@H](C)NC(=O)[C@@H]1CSSC[C@H](NC(=O)[C@@H](N)CCCCNC(=O)COCCOCCNC(=O)CC[C@H](NC(=O)CCCCCCCCCCCCCCCCCCC(=O)O)C(=O)O)C(=O)N[C@@H](CC(N)=O)C(=O)N[C@@H]([C@@H](C)O)C(=O)N[C@@H](C)C(=O)N[C@@H]([C@@H](C)O)C(=O)N1)[C@@H](C)O)C(=O)N1CCC[C@H]1C(=O)N[C@@H](CO)C(=O)N[C@@H](CO)C(=O)N[C@H](C(=O)N[C@@H](CC(N)=O)C(=O)N[C@H](C(=O)NCC(=O)N[C@@H](Cc1c[nH]cn1)C(=O)N[C@@H](CC(N)=O)C(=O)N[C@H](C(=O)N[C@@H](Cc1ccc(O)cc1)C(N)=O)[C@@H](C)O)C(C)C)[C@@H](C)O
notes: also called 76; compound 76
B5: N^ε1-[2-[2-[2-[[(4S)-4-carboxy-4-(19-carboxynonadecanoylamino)butanoyl]amino]ethoxy]ethoxy]acetyl]-[Arg17,Pro21,Pro27,Glu35]-h-amylin (peptide)
peptide: K([AEEA-γGlu-C20 diacid])CNTATCATQRLANFLRHSSPNFGAIPSSTNVGSETY-NH2
modifications: disulfide 2-7; N-terminus assumed
SMILES: CC[C@H](C)[C@H](NC(=O)[C@H](C)NC(=O)CNC(=O)[C@H](Cc1ccccc1)NC(=O)[C@H](CC(N)=O)NC(=O)[C@@H]1CCCN1C(=O)[C@H](CO)NC(=O)[C@H](CO)NC(=O)[C@H](Cc1c[nH]cn1)NC(=O)[C@H](CCCNC(=N)N)NC(=O)[C@H](CC(C)C)NC(=O)[C@H](Cc1ccccc1)NC(=O)[C@H](CC(N)=O)NC(=O)[C@H](C)NC(=O)[C@H](CC(C)C)NC(=O)[C@H](CCCNC(=N)N)NC(=O)[C@H](CCC(N)=O)NC(=O)[C@@H](NC(=O)[C@H](C)NC(=O)[C@@H]1CSSC[C@H](NC(=O)[C@@H](N)CCCCNC(=O)COCCOCCNC(=O)CC[C@H](NC(=O)CCCCCCCCCCCCCCCCCCC(=O)O)C(=O)O)C(=O)N[C@@H](CC(N)=O)C(=O)N[C@@H]([C@@H](C)O)C(=O)N[C@@H](C)C(=O)N[C@@H]([C@@H](C)O)C(=O)N1)[C@@H](C)O)C(=O)N1CCC[C@H]1C(=O)N[C@@H](CO)C(=O)N[C@@H](CO)C(=O)N[C@H](C(=O)N[C@@H](CC(N)=O)C(=O)N[C@H](C(=O)NCC(=O)N[C@@H](CO)C(=O)N[C@@H](CCC(=O)O)C(=O)N[C@H](C(=O)N[C@@H](Cc1ccc(O)cc1)C(N)=O)[C@@H](C)O)C(C)C)[C@@H](C)O
notes: also called 26; compound 26
B6: N^ε1-[2-[2-[2-[[(4S)-4-carboxy-4-(19-carboxynonadecanoylamino)butanoyl]amino]ethoxy]ethoxy]acetyl]-[Arg17,Pro21,Pro27,Pro28,Pro34]-h-amylin (peptide)
peptide: K([AEEA-γGlu-C20 diacid])CNTATCATQRLANFLRHSSPNFGAIPPSTNVGPNTY-NH2
modifications: disulfide 2-7; N-terminus assumed
SMILES: CC[C@H](C)[C@H](NC(=O)[C@H](C)NC(=O)CNC(=O)[C@H](Cc1ccccc1)NC(=O)[C@H](CC(N)=O)NC(=O)[C@@H]1CCCN1C(=O)[C@H](CO)NC(=O)[C@H](CO)NC(=O)[C@H](Cc1c[nH]cn1)NC(=O)[C@H](CCCNC(=N)N)NC(=O)[C@H](CC(C)C)NC(=O)[C@H](Cc1ccccc1)NC(=O)[C@H](CC(N)=O)NC(=O)[C@H](C)NC(=O)[C@H](CC(C)C)NC(=O)[C@H](CCCNC(=N)N)NC(=O)[C@H](CCC(N)=O)NC(=O)[C@@H](NC(=O)[C@H](C)NC(=O)[C@@H]1CSSC[C@H](NC(=O)[C@@H](N)CCCCNC(=O)COCCOCCNC(=O)CC[C@H](NC(=O)CCCCCCCCCCCCCCCCCCC(=O)O)C(=O)O)C(=O)N[C@@H](CC(N)=O)C(=O)N[C@@H]([C@@H](C)O)C(=O)N[C@@H](C)C(=O)N[C@@H]([C@@H](C)O)C(=O)N1)[C@@H](C)O)C(=O)N1CCC[C@H]1C(=O)N1CCC[C@H]1C(=O)N[C@@H](CO)C(=O)N[C@H](C(=O)N[C@@H](CC(N)=O)C(=O)N[C@H](C(=O)NCC(=O)N1CCC[C@H]1C(=O)N[C@@H](CC(N)=O)C(=O)N[C@H](C(=O)N[C@@H](Cc1ccc(O)cc1)C(N)=O)[C@@H](C)O)C(C)C)[C@@H](C)O
notes: also called 55; compound 55

Numbered stars: 1 amine (or outer) side, 2 acyl side, 3 side chain; on linkers, the order of the positions; unused ones are H or OH. Bridge positions count the residues as written; N and C are the ends. Side chains are listed from the residue outwards. Ends that are not written are not given here. * marks the point of attachment. C20 diacid = O=C(O)CCCCCCCCCCCCCCCCCCC(=O)*; γGlu = O=C(O)[C@H](CCC(=O)[*:2])N[*:1]; AEEA = NCCOCCOCC(=O)O

The assay has as its target T1, human amylin receptor (amylin 3(a) …). The assay can be described thus: SPA displacement of 125I-rat amylin, hAmylin 3(a) receptor membranes. In short, it runs like this: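 Membranes from BHK Amylin 3(a)/CRE-luc cells (35 ng/μL final) were mixed with SPA beads and test compounds in 50 mM Hepes pH 7.4 with 1 mM CaCl2, 5 mM MgCl₂, 0.1% OA and 0.02% Tween20. Incubation ran 120 min at 25° C with shaking; IC₅₀ came from one-site competition fitting.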
Background: Displacement assays read how much labelled ligand stays bound in the presence of the test substance.
For B1, the IC50 is 0.636 nM.
With B2, the half-maximal inhibitory concentration (IC50) is 0.602 nM.
The result for B3 reads 0.249 nM; that for B4, 0.215 nM.
Turning to K([AEEA-γGlu-C20 diacid])CNTATCATQRLANFLRHSSPNFGAIPPSTPVGSNTY-NH2 (disulfide 2-7, also called 53; compound 53), the IC50 is 0.052 nM.
The result for B5 reads 0.532 nM.
On to B6, for which the IC50 worked out at 0.042 nM.
